The source of these data is publication PMC11497598.

Common to all, as to experiment: analytical SEC
Common to all, as to settings: cell culture supernatant of Expi293F cells; parent: est. 72; read off a plot

Assay [1] has as its target B/Iowa/06/2017 HA HA1 220F.
Assay [2] addresses B/Iowa/06/2017 HA HA1 220N.
Assay [3] concerns the target B/Iowa/06/2017 HA HA1 220Q.
The target in assay [4] is B/Iowa/06/2017 HA HA1 220T.
Assay [5] addresses B/Iowa/06/2017 HA HA1 259V.
The target of assay [6] is B/Iowa/06/2017 HA HA1 314M.
Assay [7] concerns the target B/Iowa/06/2017 HA HA1 H311M.
For assay [8], the target named is B/Iowa/06/2017 HA HA1 K209F.
For assay [9], the target named is B/Iowa/06/2017 HA HA1 K209I.
In assay [10] the target is B/Iowa/06/2017 HA HA1 K209L.
Assay [11] concerns the target B/Iowa/06/2017 HA HA1 K209Q.
The target of assay [12] is B/Iowa/06/2017 HA HA1 K209T.
For assay [13], the target named is B/Iowa/06/2017 HA HA1 K209Y.
For assay [14], the target named is B/Iowa/06/2017 HA HA1 T211V.
The target in assay [15] is B/Iowa/06/2017 HA HA1 T218N.
The target of assay [16] is B/Iowa/06/2017 HA HA1 T218V.
The target in assay [17] is B/Iowa/06/2017 HA HA1 V217K.
The target of assay [18] is B/Iowa/06/2017 HA HA1 V217W.
Assay [19] concerns the target B/Iowa/06/2017 HA HA2 11P.
The target in assay [20] is B/Iowa/06/2017 HA HA2 15P.
In assay [21] the target is B/Iowa/06/2017 HA HA2 18P.
Assay [22] concerns the target B/Iowa/06/2017 HA HA2 29P.
Assay [23] addresses B/Iowa/06/2017 HA HA2 30W.
Assay [24] deals with B/Iowa/06/2017 HA HA2 67T.
Assay [25] has as its target B/Iowa/06/2017 HA HA2 91I.
The target in assay [26] is B/Iowa/06/2017 HA HA2 93A.
The target in assay [27] is B/Iowa/06/2017 HA HA2 111Q.
Assay [28] deals with B/Iowa/06/2017 HA HA2 116R.
For assay [29], the target named is B/Iowa/06/2017 HA HA2 116W.
For assay [30], the target named is B/Iowa/06/2017 HA HA2 D71P.
The target of assay [31] is B/Iowa/06/2017 HA HA2 E113F.
The target in assay [32] is B/Iowa/06/2017 HA HA2 E113L.
The target of assay [33] is B/Iowa/06/2017 HA HA2 E113Q.
Assay [34] has as its target B/Iowa/06/2017 HA HA2 E113W.
Assay [35] has as its target B/Iowa/06/2017 HA HA2 G68L.
The target of assay [36] is B/Iowa/06/2017 HA HA2 G68Y.
Assay [37] concerns the target B/Iowa/06/2017 HA HA2 H22Y.
For assay [38], the target named is B/Iowa/06/2017 HA HA2 H114I.
The target in assay [39] is B/Iowa/06/2017 HA HA2 H114Q.
Assay [40] concerns the target B/Iowa/06/2017 HA HA2 H114W.
Assay [41] concerns the target B/Iowa/06/2017 HA HA2 H114Y.
Assay [42] addresses B/Iowa/06/2017 HA HA2 Q64F.
Assay [43] addresses B/Iowa/06/2017 HA HA2 Q64P.
Assay [44] has as its target B/Iowa/06/2017 HA HA2 Q64W.
In assay [45] the target is B/Iowa/06/2017 HA HA2 Q64Y.
Assay [46] addresses B/Iowa/06/2017 HA HA2 S40A.
Assay [47] concerns the target B/Iowa/06/2017 HA HA2 S110W.

Consider “wild-type soluble hemagglutinin (HA) of influenza B/Iowa/06/2017 HA1:220F”, for which the other: trimer fraction in assay [1] came to 85%.

With “wild-type soluble hemagglutinin (HA) of influenza B/Iowa/06/2017 HA1:220N”, the other: trimer fraction in assay [2] worked out at 71%.

With “wild-type soluble hemagglutinin (HA) of influenza B/Iowa/06/2017 HA1:220Q”, in assay [3], the other: trimer fraction is 62%.

Turning to “wild-type soluble hemagglutinin (HA) of influenza B/Iowa/06/2017 HA1:220T”, the other: trimer fraction in assay [4] was determined as 79%.

For “wild-type soluble hemagglutinin (HA) of influenza B/Iowa/06/2017 HA1:259V”, the other: trimer fraction in [5] amounted to 92%.

Turning to “wild-type soluble hemagglutinin (HA) of influenza B/Iowa/06/2017 HA1:314M”, the other: trimer fraction in [6] amounted to 49%.

On to “wild-type soluble hemagglutinin (HA) of influenza B/Iowa/06/2017 HA1:H311M”, for which, in assay [7], the other: trimer fraction was found to be 68%.

For the substance “wild-type soluble hemagglutinin (HA) of influenza B/Iowa/06/2017 HA1:K209F”, in [8], the other: trimer fraction stood at 96%.

On to “wild-type soluble hemagglutinin (HA) of influenza B/Iowa/06/2017 HA1:K209I”, for which, in assay [9], the other: trimer fraction was 93%.

Consider “wild-type soluble hemagglutinin (HA) of influenza B/Iowa/06/2017 HA1:K209L”, for which the other: trimer fraction in assay [10] was 96%.

As to “wild-type soluble hemagglutinin (HA) of influenza B/Iowa/06/2017 HA1:K209Q”, the other: trimer fraction in assay [11] was found to be 98%.

As to “wild-type soluble hemagglutinin (HA) of influenza B/Iowa/06/2017 HA1:K209T”, the other: trimer fraction in assay [12] is 98%.

With “wild-type soluble hemagglutinin (HA) of influenza B/Iowa/06/2017 HA1:K209Y”, the other: trimer fraction in assay [13] was found to be 92%.

For “wild-type soluble hemagglutinin (HA) of influenza B/Iowa/06/2017 HA1:T211V”, the other: trimer fraction in assay [14] worked out at 78%.

With “wild-type soluble hemagglutinin (HA) of influenza B/Iowa/06/2017 HA1:T218N”, in assay [15], the other: trimer fraction is 89%.

In the case of “wild-type soluble hemagglutinin (HA) of influenza B/Iowa/06/2017 HA1:T218V”, the other: trimer fraction in assay [16] is 69%.

On to “wild-type soluble hemagglutinin (HA) of influenza B/Iowa/06/2017 HA1:V217K”, for which the other: trimer fraction in [17] worked out at 91%.

Turning to “wild-type soluble hemagglutinin (HA) of influenza B/Iowa/06/2017 HA1:V217W”, in assay [18], the other: trimer fraction was determined as 96%.

As for “wild-type soluble hemagglutinin (HA) of influenza B/Iowa/06/2017 HA2:11P”, in assay [19], the other: trimer fraction stood at 76%.

On to “wild-type soluble hemagglutinin (HA) of influenza B/Iowa/06/2017 HA2:15P”, for which the other: trimer fraction in assay [20] worked out at 69%.

Consider “wild-type soluble hemagglutinin (HA) of influenza B/Iowa/06/2017 HA2:18P”, for which the other: trimer fraction in [21] came out at 57%.

As to “wild-type soluble hemagglutinin (HA) of influenza B/Iowa/06/2017 HA2:29P”, the other: trimer fraction in [22] was 77%.

Take “wild-type soluble hemagglutinin (HA) of influenza B/Iowa/06/2017 HA2:30W”: the other: trimer fraction in assay [23] came to 69%.

For “wild-type soluble hemagglutinin (HA) of influenza B/Iowa/06/2017 HA2:67T”, the other: trimer fraction in assay [24] is 77%.

Regarding “wild-type soluble hemagglutinin (HA) of influenza B/Iowa/06/2017 HA2:91I”, the other: trimer fraction in assay [25] was found to be 56%.

As to “wild-type soluble hemagglutinin (HA) of influenza B/Iowa/06/2017 HA2:93A”, in assay [26], the other: trimer fraction was found to be 87%.

In the case of “wild-type soluble hemagglutinin (HA) of influenza B/Iowa/06/2017 HA2:111Q”, the other: trimer fraction in assay [27] amounted to 84%.

On to “wild-type soluble hemagglutinin (HA) of influenza B/Iowa/06/2017 HA2:116R”, for which the other: trimer fraction in [28] stood at 86%.

On to “wild-type soluble hemagglutinin (HA) of influenza B/Iowa/06/2017 HA2:116W”, for which, in assay [29], the other: trimer fraction was found to be 90%.

With “wild-type soluble hemagglutinin (HA) of influenza B/Iowa/06/2017 HA2:D71P”, the other: trimer fraction in assay [30] was 88%.

For “wild-type soluble hemagglutinin (HA) of influenza B/Iowa/06/2017 HA2:E113F”, the other: trimer fraction in assay [31] came out at 98%.

As for “wild-type soluble hemagglutinin (HA) of influenza B/Iowa/06/2017 HA2:E113L”, in [32], the other: trimer fraction turned out to be 97%.

For “wild-type soluble hemagglutinin (HA) of influenza B/Iowa/06/2017 HA2:E113Q”, the other: trimer fraction in assay [33] is 97%.

In the case of “wild-type soluble hemagglutinin (HA) of influenza B/Iowa/06/2017 HA2:E113W”, the other: trimer fraction in [34] is 100%.

With “wild-type soluble hemagglutinin (HA) of influenza B/Iowa/06/2017 HA2:G68L”, in assay [35], the other: trimer fraction came out at 97%.

Take “wild-type soluble hemagglutinin (HA) of influenza B/Iowa/06/2017 HA2:G68Y”: the other: trimer fraction in [36] is 96%.

Regarding “wild-type soluble hemagglutinin (HA) of influenza B/Iowa/06/2017 HA2:H22Y”, in [37], the other: trimer fraction is 85%.

For “wild-type soluble hemagglutinin (HA) of influenza B/Iowa/06/2017 HA2:H114I”, the other: trimer fraction in assay [38] was 55%.

Regarding “wild-type soluble hemagglutinin (HA) of influenza B/Iowa/06/2017 HA2:H114Q”, in assay [39], the other: trimer fraction is 65%.

Consider “wild-type soluble hemagglutinin (HA) of influenza B/Iowa/06/2017 HA2:H114W”, for which the other: trimer fraction in assay [40] was 43%.

Regarding “wild-type soluble hemagglutinin (HA) of influenza B/Iowa/06/2017 HA2:H114Y”, the other: trimer fraction in assay [41] turned out to be 65%.

On to “wild-type soluble hemagglutinin (HA) of influenza B/Iowa/06/2017 HA2:Q64F”, for which the other: trimer fraction in [42] was 96%.

Take “wild-type soluble hemagglutinin (HA) of influenza B/Iowa/06/2017 HA2:Q64P”: in assay [43], the other: trimer fraction was determined as 65%.

For the substance “wild-type soluble hemagglutinin (HA) of influenza B/Iowa/06/2017 HA2:Q64W”, the other: trimer fraction in assay [44] turned out to be 93%.

As to “wild-type soluble hemagglutinin (HA) of influenza B/Iowa/06/2017 HA2:Q64Y”, in assay [45], the other: trimer fraction is 98%.

“wild-type soluble hemagglutinin (HA) of influenza B/Iowa/06/2017 HA2:S40A”: the other: trimer fraction in assay [46] is 52%.

“wild-type soluble hemagglutinin (HA) of influenza B/Iowa/06/2017 HA2:S110W”: in [47], the other: trimer fraction was found to be 51%.
